Residue numbers refer to the chain shown, from its start. Where two headings read alike, the source gives them in different places.
What was measured:
[1] = biological target: T1, S2hlx-Ex8-Trx; assay: SPR, mAb captured, antigen as analyte
T1 chain: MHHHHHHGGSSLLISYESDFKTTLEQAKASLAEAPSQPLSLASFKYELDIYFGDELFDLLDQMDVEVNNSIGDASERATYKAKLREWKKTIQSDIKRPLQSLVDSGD

[2] = biological target: T2, S2hlx-Ex34; assay: SPR, mAb captured, antigen as analyte
T2 chain: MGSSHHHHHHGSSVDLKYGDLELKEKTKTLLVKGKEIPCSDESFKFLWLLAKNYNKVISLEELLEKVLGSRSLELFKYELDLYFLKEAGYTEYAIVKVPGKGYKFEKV

[3] = biological target: T3, S2hlx-8; assay: SPR, mAb captured, antigen as analyte
T3 epitope scaffold: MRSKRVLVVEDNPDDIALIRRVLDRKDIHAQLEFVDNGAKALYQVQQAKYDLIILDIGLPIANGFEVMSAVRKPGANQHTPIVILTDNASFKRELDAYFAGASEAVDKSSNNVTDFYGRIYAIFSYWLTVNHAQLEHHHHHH

[4] = biological target: T4, S2hlx-13; assay: SPR, mAb captured, antigen as analyte
T4 epitope scaffold: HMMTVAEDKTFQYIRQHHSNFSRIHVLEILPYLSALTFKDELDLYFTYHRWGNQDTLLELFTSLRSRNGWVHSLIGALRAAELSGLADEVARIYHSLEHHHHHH

[5] = biological target: T5, S2hlx-1; assay: SPR, mAb captured, antigen as analyte
T5 epitope scaffold: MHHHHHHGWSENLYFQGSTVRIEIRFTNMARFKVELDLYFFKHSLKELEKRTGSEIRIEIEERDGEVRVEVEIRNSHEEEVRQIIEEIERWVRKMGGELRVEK

[6] = biological target: S2hlx-14; assay: SPR, mAb captured, antigen as analyte
[7] = biological target: T3, S2hlx-8; assay: SPR, mAb captured, antigen as analyte
[8] = biological target: T6, S2hlx-Ex54; assay: SPR, single cycle; mAb captured on Protein A, epitope scaffold as analyte
T6 chain: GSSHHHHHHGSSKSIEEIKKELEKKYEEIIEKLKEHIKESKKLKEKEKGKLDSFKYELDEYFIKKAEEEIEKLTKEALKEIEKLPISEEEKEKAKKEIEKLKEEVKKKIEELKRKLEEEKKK

[9] = biological target: T7, S2hlx-Ex37; assay: as above
T7 chain: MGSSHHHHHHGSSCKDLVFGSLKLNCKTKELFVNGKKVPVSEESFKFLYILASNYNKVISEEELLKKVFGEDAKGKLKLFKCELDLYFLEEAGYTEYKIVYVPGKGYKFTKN

[10] = biological target: T8, S2hlx-Ex46; assay: as above
T8 epitope scaffold: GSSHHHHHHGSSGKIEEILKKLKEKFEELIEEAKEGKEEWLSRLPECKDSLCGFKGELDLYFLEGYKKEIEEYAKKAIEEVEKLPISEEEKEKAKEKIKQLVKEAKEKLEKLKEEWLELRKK

[11] = biological target: T9, S2hlx-Ex34 F1148A; assay: ELISA; antigen coated, mAb titrated
T9 epitope scaffold: T2 chain with F76A

[12] = biological target: T10, S2hlx-Ex34 L1145A; assay: ELISA; antigen coated, mAb titrated
T10 epitope scaffold: T2 chain with L73A

[13] = biological target: T2, S2hlx-Ex34; assay: ELISA; antigen coated, mAb titrated
[14] = biological target: T11, S2hlx-Ex4; assay: ELISA, coated antigen, mAb titrated
T11 construct: backbone grafting design
T11 chain: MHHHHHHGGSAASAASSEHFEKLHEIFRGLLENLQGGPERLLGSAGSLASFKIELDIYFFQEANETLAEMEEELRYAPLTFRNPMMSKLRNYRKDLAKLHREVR

[15] = biological target: T12, S2hlx-Ex3; assay: ELISA, coated antigen, mAb titrated
T12 construct: backbone grafting design
T12 chain: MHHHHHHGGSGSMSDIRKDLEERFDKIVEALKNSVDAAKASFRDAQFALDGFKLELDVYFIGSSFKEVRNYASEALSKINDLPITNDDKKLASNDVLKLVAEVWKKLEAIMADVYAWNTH

[16] = biological target: T13, S2hlx-Ex2; assay: ELISA, coated antigen, mAb titrated
T13 construct: backbone grafting design
T13 chain: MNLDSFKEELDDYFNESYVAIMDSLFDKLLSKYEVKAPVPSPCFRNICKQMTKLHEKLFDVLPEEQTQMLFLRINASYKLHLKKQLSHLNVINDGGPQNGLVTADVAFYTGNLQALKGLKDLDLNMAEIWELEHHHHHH

[17] = biological target: T14, S2hlx-Ex15; assay: SPR, mAb captured, antigen as analyte
T14 chain: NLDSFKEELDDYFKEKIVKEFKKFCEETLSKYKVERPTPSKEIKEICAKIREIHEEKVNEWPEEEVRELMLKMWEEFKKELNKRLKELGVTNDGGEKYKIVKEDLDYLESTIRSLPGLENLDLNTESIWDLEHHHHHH

[18] = biological target: T15, S2hlx-Ex20; assay: SPR, mAb captured, antigen as analyte
T15 chain: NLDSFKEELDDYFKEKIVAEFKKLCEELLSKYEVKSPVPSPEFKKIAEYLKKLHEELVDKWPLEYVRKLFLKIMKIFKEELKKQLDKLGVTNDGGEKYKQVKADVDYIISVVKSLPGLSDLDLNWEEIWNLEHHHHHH

[19] = biological target: T16, S2hlx-Ex17; assay: SPR, mAb captured, antigen as analyte
T16 chain: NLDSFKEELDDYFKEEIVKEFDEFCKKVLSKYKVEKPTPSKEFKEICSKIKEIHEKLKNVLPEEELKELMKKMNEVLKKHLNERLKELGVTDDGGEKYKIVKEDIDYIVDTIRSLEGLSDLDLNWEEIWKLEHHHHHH

B1: S2P6 mAb (antibody, V domains shown)
VH: EVQLVQSGAEVKKPGASVKVSCKASGYTFTSQYMHWVRQAPGQGLEWIGIINPSGVHTSYAQKFQGRVTLTRDTSTSTLYMELSSLRSEDTAVYYCARGSPKGAFDYWGQGTLVTVSS
VL: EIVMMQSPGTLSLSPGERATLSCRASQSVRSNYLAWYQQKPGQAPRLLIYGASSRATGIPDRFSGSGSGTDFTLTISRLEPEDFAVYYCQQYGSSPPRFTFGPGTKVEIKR
- Kd [1]: 568 nM
- Kd [2]: 143 nM
- Kd [3]: 63 nM
- Kd [4]: 83 nM
- Kd [5]: 52.8 nM
- Kd [6]: 30 nM
- Kd [7]: 63 nM
- Kd [8]: 45.6 nM
- Kd [9]: 664 nM
- Kd [10]: 296 nM
- EC50 (read off the curve) [11]: ~0.09 µg/mL
- EC50 (read off the curve) [12]: ~0.02 µg/mL
- EC50 (read off the curve) [13]: ~0.02 µg/mL
- EC50 (read off the curve) [14]: ~0.07 µg/mL
- EC50 (read off the curve) [15]: ~0.06 µg/mL
- EC50 (read off the curve) [16]: ~0.07 µg/mL
- Kd [17]: 6 nM
- Kd [18]: 10.7 nM
- Kd [19]: 29.6 nM

— US20240285753A1 (DUKE UNIVERSITY, published 2024)
